For this data set, the system named is O=[N+]([O-])c1ccc(O[C@@H]2OC[C@@H](O)[C@H](O)[C@H]2O)cc1. The experiment in a line: purified protein. In kind it is biochemical, uncultured bacterium. As to conditions: 50 mM sodium phosphate pH 6, 37 °C, 20 min, 1-20 mM substrate, kcat unit not given.

Among the data in PMC8543862, “Characterization of a highly xylose tolerant β-xylosidase isolated from high temperature horse manure compost” (BMC Biotechnology, 2021) are Km values, retold here.

With XylP81 (uncultured bacterium), the Km turned out to be 5.3 mM.
